Data reported in patent US8703913B2, “Sensor” (Medical Research Council, priority 2008, dated 2014).

Key:
[1] = Fluorescence titration of labeled ParM with ADP; type: binding; details: Table 2, 20° C.; for ADP F+ADP/F−ADP: MDCC-ParM mutants; for Kd: fluorescence titration
Procedure: MDCC fluorescence was excited at 431 nm and detected at 474 nm, for the rhodamine-labeled proteins, excitation and emission wavelengths of 553 nm and 578 nm were used. […] The fraction of ParM bound to ADP was calculated from the fluorescence intensities.
The MDCC fluorescence was excited at 431 nm and emission was recorded at 474 nm. The equilibrium dissociation constants were determined by fitting a quadratic binding curve to the data.
(§1) The equilibrium dissociation constants were determined by fitting a quadratic binding curve to the data and are listed in Table Y. For the plot the experimental fluorescence intensities were normalized to the maximal fluorescence change obtained at saturation with ADP.
(§2) [formula] where [P] and [L] are the total concentrations of protein and ligand, respectively, Kd is the dissociation constant and Fmin and Fmax are the fluorescence intensities of the free and ligand bound protein.
(§3) Fluorescence spectra and titrations were measured in a Cary Eclipse spectrofluorimeter (Varian). Excitation and emission spectra were recorded with 5 nm slit width at emission and excitation wavelength of 576 nm and 553 nm, respectively. In titration experiments rhodamine fluorescence was measured at the same excitation/emission wavelength. Titration data were analyzed with a quadratic binding curve using the program Grafit 5.0 (7).

[2] = Fluorescence titration of labeled ParM with ATP; type: binding; details: Table 2; for ATP F+ATP/F−ATP: MDCC-ParM mutants; for ATP F+ATP/F−ATP / Kd: 20° C.; for Kd: highly purified ATP containing only 0.03% ADP
Procedure: The MDCC fluorescence was excited at 431 nm and emission was recorded at 474 nm. The equilibrium dissociation constants were determined by fitting a quadratic binding curve to the data. For the plot the experimental fluorescence intensities were converted to the nucleotide bound fraction of ParM.
as §1
ADP and ATP were purchased from Sigma at the highest purity available. The purity of the nucleotides was analysed by HPLC using a Partisphere SAX column, 125×4.5 mm (Whatman). Nucleotide separation was performed isocratic with 0.3 M (NH4)2HPO4 buffer pH 4.0, 25% MeOH, and the absorbance at 260 nm was monitored.
as §2, §3

[3] = Stopped-flow kinetics of ADP binding and dissociation; details: Table 3; for kon: ADP association, stopped-flow; for kon / koff: 20° C.; for Kd: calculated as koff/kon; for koff: displacement with unlabeled ParM
PcrA helicase = PcrA helicase (Geobacillus stearothermophilus, UniProt P56255); test: Steady-state ATP hydrolysis by PcrA helicase monitored with the biosensor; type: biochemical, Bacillus stearothermophilus; details: for initial rate of ADP generation: 3.8 μM dT16, 10 μM MDCC-ParM, 20° C.
[4] = 2 nM PcrA, 0.5 μM dT20, 5 μM MDCC-ParM, set of calibration curves
[5] = measured with phosphate biosensor MDCC-PBP

| Molecule | ADP F+ADP/F−ADP [1] | Kd [1] [µM] | Kd ratio ATP/ADP [2] | ATP F+ATP/F−ATP [2] | Kd [2] [µM] | kon [3] [M⁻¹ s⁻¹] | Kd [3] [µM] | koff [3] [s⁻¹] | other results |
| --- | --- | --- | --- | --- | --- | --- | --- | --- | --- |
| S9Q: MDCC-ParM (His6/S9Q/I27C/C287A) (conjugate, UniProt P11904 1-320, looked up, variant S9Q I27C C287A, MDCC label; His6 tag) Plasmid segregation protein …: MLVFIDDGQTNIKLQWQESDGTIKQHCSPNSFKREWAVSFGDKKVFNYTLNGEQYSFDPISPDAVVTTNIAWQYSDVNVVAVHHALLTSGLPVSEVDIVCTLPLTEYYDRNNQPNTENIERKKANFRKKITLNGGDTFTIKDVKVMPESIPAGYEVLQELDELDSLLIIDLGGTTLDISQVMGKLSGISKIYGDSSLGVSLVTSAVKDALSLARTKGSSYLADDIIIHRKDNNYLKQRINDENKISIVTEAMNEALRKLEQRVLNTLNEFSGYTHVMVIGGGAELIADAVKKHTQIRDERFFKTNNSQYDLVNGMYLIGN | 3.2 | 1.66 | 40 | 2.8 | 66 | – | – | – | – |
| T175L: MDCC-ParM (His6/I27C/T175L/C287A) (conjugate, UniProt P11904 1-320, looked up, variant I27C T175L C287A, MDCC label; His6 tag) Plasmid segregation protein …: MLVFIDDGSTNIKLQWQESDGTIKQHCSPNSFKREWAVSFGDKKVFNYTLNGEQYSFDPISPDAVVTTNIAWQYSDVNVVAVHHALLTSGLPVSEVDIVCTLPLTEYYDRNNQPNTENIERKKANFRKKITLNGGDTFTIKDVKVMPESIPAGYEVLQELDELDSLLIIDLGGTLLDISQVMGKLSGISKIYGDSSLGVSLVTSAVKDALSLARTKGSSYLADDIIIHRKDNNYLKQRINDENKISIVTEAMNEALRKLEQRVLNTLNEFSGYTHVMVIGGGAELIADAVKKHTQIRDERFFKTNNSQYDLVNGMYLIGN | 1.9 | 1.57 | 324 | 2.3 | 507 | 340000 | 0.81 | 0.28 | – |
| E148R: MDCC-ParM (His6/I27C/E148R/C287A) (conjugate, UniProt P11904 1-320, looked up, variant I27C E148R C287A, MDCC label, His6 tag) Plasmid segregation protein …: MLVFIDDGSTNIKLQWQESDGTIKQHCSPNSFKREWAVSFGDKKVFNYTLNGEQYSFDPISPDAVVTTNIAWQYSDVNVVAVHHALLTSGLPVSEVDIVCTLPLTEYYDRNNQPNTENIERKKANFRKKITLNGGDTFTIKDVKVMPRSIPAGYEVLQELDELDSLLIIDLGGTTLDISQVMGKLSGISKIYGDSSLGVSLVTSAVKDALSLARTKGSSYLADDIIIHRKDNNYLKQRINDENKISIVTEAMNEALRKLEQRVLNTLNEFSGYTHVMVIGGGAELIADAVKKHTQIRDERFFKTNNSQYDLVNGMYLIGN | <1.1 | – | – | <1.1 | – | – | – | – | – |
| T175A: MDCC-ParM (His6/I27C/T175A/C287A) (conjugate, UniProt P11904 1-320, looked up, variant I27C T175A C287A, MDCC label; His6 tag) Plasmid segregation protein …: MLVFIDDGSTNIKLQWQESDGTIKQHCSPNSFKREWAVSFGDKKVFNYTLNGEQYSFDPISPDAVVTTNIAWQYSDVNVVAVHHALLTSGLPVSEVDIVCTLPLTEYYDRNNQPNTENIERKKANFRKKITLNGGDTFTIKDVKVMPESIPAGYEVLQELDELDSLLIIDLGGTALDISQVMGKLSGISKIYGDSSLGVSLVTSAVKDALSLARTKGSSYLADDIIIHRKDNNYLKQRINDENKISIVTEAMNEALRKLEQRVLNTLNEFSGYTHVMVIGGGAELIADAVKKHTQIRDERFFKTNNSQYDLVNGMYLIGN | 3.3 | 0.37 | 168 | 3.3 | 62 | – | – | – | – |
| T174A T175A: MDCC-ParM (His6/I27C/T174A/T175A/C287A) (conjugate, UniProt P11904 1-320, looked up, variant I27C T174A T175A C287A, MDCC label; His6 tag) Plasmid segregation protein …: MLVFIDDGSTNIKLQWQESDGTIKQHCSPNSFKREWAVSFGDKKVFNYTLNGEQYSFDPISPDAVVTTNIAWQYSDVNVVAVHHALLTSGLPVSEVDIVCTLPLTEYYDRNNQPNTENIERKKANFRKKITLNGGDTFTIKDVKVMPESIPAGYEVLQELDELDSLLIIDLGGAALDISQVMGKLSGISKIYGDSSLGVSLVTSAVKDALSLARTKGSSYLADDIIIHRKDNNYLKQRINDENKISIVTEAMNEALRKLEQRVLNTLNEFSGYTHVMVIGGGAELIADAVKKHTQIRDERFFKTNNSQYDLVNGMYLIGN | 3.3 | 0.33 | 324 | 3.2 | 107 | 980000 | 0.22 | 0.22 | – |
| T174A: MDCC-ParM (His6/I27C/T174A/C287A) (conjugate, UniProt P11904 1-320, looked up, variant I27C T174A C287A, MDCC label; His6 tag) Plasmid segregation protein …: MLVFIDDGSTNIKLQWQESDGTIKQHCSPNSFKREWAVSFGDKKVFNYTLNGEQYSFDPISPDAVVTTNIAWQYSDVNVVAVHHALLTSGLPVSEVDIVCTLPLTEYYDRNNQPNTENIERKKANFRKKITLNGGDTFTIKDVKVMPESIPAGYEVLQELDELDSLLIIDLGGATLDISQVMGKLSGISKIYGDSSLGVSLVTSAVKDALSLARTKGSSYLADDIIIHRKDNNYLKQRINDENKISIVTEAMNEALRKLEQRVLNTLNEFSGYTHVMVIGGGAELIADAVKKHTQIRDERFFKTNNSQYDLVNGMYLIGN | 2.9 | 0.39 | 164 | 3.1 | 64 | – | – | – | – |
| T175N: MDCC-ParM (His6/I27C/T175N/C287A) (conjugate, UniProt P11904 1-320, looked up, variant I27C T175N C287A, MDCC label; His6 tag) Plasmid segregation protein …: MLVFIDDGSTNIKLQWQESDGTIKQHCSPNSFKREWAVSFGDKKVFNYTLNGEQYSFDPISPDAVVTTNIAWQYSDVNVVAVHHALLTSGLPVSEVDIVCTLPLTEYYDRNNQPNTENIERKKANFRKKITLNGGDTFTIKDVKVMPESIPAGYEVLQELDELDSLLIIDLGGTNLDISQVMGKLSGISKIYGDSSLGVSLVTSAVKDALSLARTKGSSYLADDIIIHRKDNNYLKQRINDENKISIVTEAMNEALRKLEQRVLNTLNEFSGYTHVMVIGGGAELIADAVKKHTQIRDERFFKTNNSQYDLVNGMYLIGN | 3.4 | 0.6 | 307 | 3.2 | 184 | 640000 | 0.42 | 0.27 | – |
| PcrA: DNA helicase from Bacillus stearothermophilus involved in plasmid replication (protein, UniProt P56255 1-724, looked up) ATP-dependent DNA helicase …: MNFLSEQLLAHLNKEQQEAVRTTEGPLLIMAGAGSGKTRVLTHRIAYLMAEKHVAPWNILAITFTNKAAREMRERVQSLLGGAAEDVWISTFHSMCVRILRRDIDRIGINRNFSILDPTDQLSVMKTILKEKNIDPKKFEPRTILGTISAAKNELLPPEQFAKRASTYYEKVVSDVYQEYQQRLLRNHSLDFDDLIMTTIQLFDRVPDVLHYYQYKFQYIHIDEYQDTNRAQYTLVKKLAERFQNICAVGDADQSIYRWRGADIQNILSFERDYPNAKVILLEQNYRSTKRILQAANEVIEHNVNRKPKRIWTENPEGKPILYYEAMNEADEAQFVAGRIREAVERGERRYRDFAVLYRTNAQSRVMEEMLLKANIPYQIVGGLKFYDRKEIKDILAYLRVIANPDDDLSLLRIINVPKRGIGASTIDKLVRYAADHELSLFEALGELEMIGLGAKAAGALAAFRSQLEQWTQLQEYVSVTELVEEVLDKSGYREMLKAERTIEAQSRLENLDEFLSVTKHFENVSDDKSLIAFLTDLALISDLDELDGTEQAAEGDAVMLMTLHAAKGLEFPVVFLIGMEEGIFPHNRSLEDDDEMEEERRLAYVGITRAEEELVLTSAQMRTLFGNIQMDPPSRFLNEIPAHLLETASRRQAGASRPAVSRPQASGAVGSWKVGDRANHRKWGIGTVVSVRGGGDDQELDIAFPSPIGIKRLLAKFAPIEKV | – | – | – | – | – | – | – | – | initial rate of ADP generation (PcrA helicase; 1 nM PcrA, 5 μM ATP): 10.4 nM/s; Km (PcrA helicase; [4]): 1.6 µM; kcat (PcrA helicase; [4]): 13.7 s⁻¹; initial rate of ADP generation (PcrA helicase; 2 nM PcrA, 5 μM ATP): 19.9 nM/s; kcat (PcrA helicase; calibration at 15 μM total nucleotide concentration): 14.0 s⁻¹; kcat (PcrA helicase; calibration in the absence of ATP): 12.2 s⁻¹; steady state hydrolysis activity (PcrA helicase; measured with MDCC-ParM, 5 μM ATP, background subtracted): 6.8 s⁻¹; Km (PcrA helicase; [5]): 1.7 µM; kcat (PcrA helicase; [5]): 11.5 s⁻¹; steady state hydrolysis activity (PcrA helicase; [5]): 7.2 s⁻¹; Michaelis-Menten constant for ATP (PcrA helicase; single calibration used for all ATP concentrations): 1.4 µM |
